Measured values as given in publication doi:10.1101/2022.07.02.498517.

Target: human ATP synthase complex (human (endogenous in HEK293T))
Assay: native gel or EMSA

stoichiometry N: 2
Substance: human ATP synthase complex
